One test has as its target T1, LGN (Homo sapiens, UniProt P81274).
T1 chain: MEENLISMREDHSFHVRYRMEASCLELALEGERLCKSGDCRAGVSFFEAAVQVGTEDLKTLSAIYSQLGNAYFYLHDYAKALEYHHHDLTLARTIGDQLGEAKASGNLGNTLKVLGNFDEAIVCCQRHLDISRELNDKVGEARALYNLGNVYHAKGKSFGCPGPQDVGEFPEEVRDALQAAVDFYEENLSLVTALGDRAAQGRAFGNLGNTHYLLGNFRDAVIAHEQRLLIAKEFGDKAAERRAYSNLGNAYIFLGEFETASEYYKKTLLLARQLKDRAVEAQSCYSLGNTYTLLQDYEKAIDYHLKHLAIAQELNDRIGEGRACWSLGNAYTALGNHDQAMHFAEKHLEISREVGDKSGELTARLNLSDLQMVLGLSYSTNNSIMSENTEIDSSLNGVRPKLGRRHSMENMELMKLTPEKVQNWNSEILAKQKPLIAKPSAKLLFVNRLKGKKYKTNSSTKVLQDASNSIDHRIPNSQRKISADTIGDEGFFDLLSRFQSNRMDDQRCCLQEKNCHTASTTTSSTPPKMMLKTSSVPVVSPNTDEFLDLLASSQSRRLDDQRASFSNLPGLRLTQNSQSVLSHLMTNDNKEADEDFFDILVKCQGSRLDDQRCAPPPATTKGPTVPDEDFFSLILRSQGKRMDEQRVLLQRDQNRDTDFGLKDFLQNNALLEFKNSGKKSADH

The next test deals with T2, AGS3 (Homo sapiens, UniProt Q86YR5).
T2 chain: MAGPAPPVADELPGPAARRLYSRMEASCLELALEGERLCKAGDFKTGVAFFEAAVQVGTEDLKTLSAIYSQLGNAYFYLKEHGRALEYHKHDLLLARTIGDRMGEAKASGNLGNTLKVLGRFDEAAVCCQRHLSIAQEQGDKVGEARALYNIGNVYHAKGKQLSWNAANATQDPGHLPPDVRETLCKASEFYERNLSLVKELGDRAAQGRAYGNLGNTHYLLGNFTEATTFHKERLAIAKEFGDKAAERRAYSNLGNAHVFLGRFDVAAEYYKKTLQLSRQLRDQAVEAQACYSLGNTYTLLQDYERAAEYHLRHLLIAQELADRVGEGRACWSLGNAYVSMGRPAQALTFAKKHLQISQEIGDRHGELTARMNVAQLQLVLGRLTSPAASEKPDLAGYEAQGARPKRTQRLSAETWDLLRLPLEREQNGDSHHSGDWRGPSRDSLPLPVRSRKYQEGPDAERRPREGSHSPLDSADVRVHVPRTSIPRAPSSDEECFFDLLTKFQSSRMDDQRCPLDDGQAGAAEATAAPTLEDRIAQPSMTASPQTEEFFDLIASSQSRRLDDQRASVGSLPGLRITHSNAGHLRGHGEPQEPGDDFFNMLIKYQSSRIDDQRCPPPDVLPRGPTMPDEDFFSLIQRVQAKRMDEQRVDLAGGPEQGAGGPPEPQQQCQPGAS

The target of test [1] is T3, Gαi3⋅GDP (human, UniProt P08754 1-354).
T3 chain: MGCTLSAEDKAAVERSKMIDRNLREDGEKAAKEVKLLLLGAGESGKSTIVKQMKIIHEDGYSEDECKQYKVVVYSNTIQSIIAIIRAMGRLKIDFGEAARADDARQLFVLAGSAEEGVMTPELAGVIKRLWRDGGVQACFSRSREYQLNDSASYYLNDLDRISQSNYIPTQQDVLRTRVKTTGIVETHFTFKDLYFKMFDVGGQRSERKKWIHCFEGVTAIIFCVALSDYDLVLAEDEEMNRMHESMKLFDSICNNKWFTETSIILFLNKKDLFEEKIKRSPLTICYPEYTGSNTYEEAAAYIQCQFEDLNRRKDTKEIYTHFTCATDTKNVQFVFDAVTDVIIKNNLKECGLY
Nature of the test: ITC; GDP. A general note: ITC needs no label: the signal is the heat of the interaction.

The target in test [2] is T3, Gαi3⋅GDP. Nature of the test: ITC.
In the next test the target is T4, FL-LGN-4E (mouse, UniProt Q8VDU0).
T4 sequence (Q8VDU0 whole entry, looked up): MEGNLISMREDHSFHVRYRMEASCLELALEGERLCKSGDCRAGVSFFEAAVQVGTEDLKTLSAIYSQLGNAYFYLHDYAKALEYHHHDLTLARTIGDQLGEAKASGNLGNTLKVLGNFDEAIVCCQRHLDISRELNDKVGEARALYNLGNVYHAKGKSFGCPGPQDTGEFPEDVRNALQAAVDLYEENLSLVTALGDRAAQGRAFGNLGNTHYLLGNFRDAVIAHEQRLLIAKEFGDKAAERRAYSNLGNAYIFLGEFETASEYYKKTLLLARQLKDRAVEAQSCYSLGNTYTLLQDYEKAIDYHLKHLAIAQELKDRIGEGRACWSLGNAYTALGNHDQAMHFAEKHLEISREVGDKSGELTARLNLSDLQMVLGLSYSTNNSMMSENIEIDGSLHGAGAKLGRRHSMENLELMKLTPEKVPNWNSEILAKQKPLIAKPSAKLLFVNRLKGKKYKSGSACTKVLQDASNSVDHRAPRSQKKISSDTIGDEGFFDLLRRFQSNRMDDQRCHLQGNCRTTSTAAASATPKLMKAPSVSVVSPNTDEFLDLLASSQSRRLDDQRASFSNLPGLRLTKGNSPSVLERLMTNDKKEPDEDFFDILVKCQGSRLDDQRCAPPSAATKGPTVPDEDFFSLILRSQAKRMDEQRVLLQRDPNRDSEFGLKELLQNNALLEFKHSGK
Put plainly: ITC.

The next test concerns the target T5, FL-AGS3-4E (mouse, UniProt Q6IR34).
T5 sequence (Q6IR34 whole entry, looked up): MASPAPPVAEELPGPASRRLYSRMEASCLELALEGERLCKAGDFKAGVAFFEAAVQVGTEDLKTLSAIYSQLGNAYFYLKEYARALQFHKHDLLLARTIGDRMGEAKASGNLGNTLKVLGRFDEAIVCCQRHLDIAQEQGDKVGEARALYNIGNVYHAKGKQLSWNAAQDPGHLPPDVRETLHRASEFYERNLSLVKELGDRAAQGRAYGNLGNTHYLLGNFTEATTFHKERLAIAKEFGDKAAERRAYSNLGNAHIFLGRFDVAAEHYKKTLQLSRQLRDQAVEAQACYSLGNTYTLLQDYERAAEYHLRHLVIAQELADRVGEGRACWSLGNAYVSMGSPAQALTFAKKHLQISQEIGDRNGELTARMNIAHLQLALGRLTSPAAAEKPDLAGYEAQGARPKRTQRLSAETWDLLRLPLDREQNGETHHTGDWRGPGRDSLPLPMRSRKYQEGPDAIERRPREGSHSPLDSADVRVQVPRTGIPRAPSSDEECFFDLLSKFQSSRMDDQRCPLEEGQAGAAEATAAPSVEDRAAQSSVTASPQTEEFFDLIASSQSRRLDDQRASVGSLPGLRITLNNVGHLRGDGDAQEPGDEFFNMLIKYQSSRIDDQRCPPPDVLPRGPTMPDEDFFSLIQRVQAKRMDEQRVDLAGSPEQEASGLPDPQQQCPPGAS
Put plainly: ITC.

The target of another test is T6, LGN-TPR (1–409) (mouse).
T6 chain: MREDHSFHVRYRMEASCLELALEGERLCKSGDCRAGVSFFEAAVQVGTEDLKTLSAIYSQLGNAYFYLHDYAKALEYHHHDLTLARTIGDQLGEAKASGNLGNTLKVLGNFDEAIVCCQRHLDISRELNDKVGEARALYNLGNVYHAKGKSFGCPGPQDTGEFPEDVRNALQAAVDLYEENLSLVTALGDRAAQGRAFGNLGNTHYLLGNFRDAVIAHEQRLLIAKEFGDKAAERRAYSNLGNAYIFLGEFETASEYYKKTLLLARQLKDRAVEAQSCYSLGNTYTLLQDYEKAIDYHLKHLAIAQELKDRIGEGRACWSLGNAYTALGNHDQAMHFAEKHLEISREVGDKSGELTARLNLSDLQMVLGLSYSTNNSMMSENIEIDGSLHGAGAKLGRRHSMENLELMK
Nature of the test: ITC.

A further test addresses T7, AGS3-L (−23–405) (mouse).
T7 chain: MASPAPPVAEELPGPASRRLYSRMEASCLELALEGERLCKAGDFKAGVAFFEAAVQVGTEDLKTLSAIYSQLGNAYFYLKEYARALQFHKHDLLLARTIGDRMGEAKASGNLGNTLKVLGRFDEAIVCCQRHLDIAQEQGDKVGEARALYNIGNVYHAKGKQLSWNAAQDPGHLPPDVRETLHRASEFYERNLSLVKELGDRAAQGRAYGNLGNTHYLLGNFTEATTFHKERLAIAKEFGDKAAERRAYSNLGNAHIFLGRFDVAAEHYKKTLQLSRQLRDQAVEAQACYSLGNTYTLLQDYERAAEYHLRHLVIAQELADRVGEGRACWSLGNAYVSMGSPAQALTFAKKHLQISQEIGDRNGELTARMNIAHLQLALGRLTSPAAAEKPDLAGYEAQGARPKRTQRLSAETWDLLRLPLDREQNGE
Put plainly: ITC.

No end group written: not given here.

WGLWGVQESRRLCCAGHDRCKQALLQIGINMMALPGGRHLDSVTLPGQR: the Kd is 3.92 µM in the test with LGN and 2270 nM in the test with AGS3.
With WGLWGVQESRRLCCAGHDRCKQALLQIGINMMALPGGRHLDSVTLPGQR (not fully specified; cysteine pairing not given here), the Kd with LGN is 2.62 µM; with AGS3 it was 2290 nM.
DEDFFDILVKCQGSRLDDQRCAP (domain or fragment) [LGN GL3 motif] gave an equilibrium dissociation constant (Kd) in the test with Gαi3⋅GDP [1] of 40 nM.
GDEFFNMLIKYQSSRIDDQRCPP (domain or fragment) [AGS3 GL3 motif]: the dissociation constant Kd with Gαi3⋅GDP [2] and with Gαi3⋅GDP [1] was 260 nM throughout.
Turning to TDEFLDLLASSQSRRLDDQRASF (domain or fragment) [LGN GL2 motif], the Kd amounted to 41.5 nM in the test with Gαi3⋅GDP [2] and 40 nM in the test with Gαi3⋅GDP [1].
DEGFFDLLRRFQSNRMDDQRCHL (domain or fragment) [LGN GL1 motif]: the Kd in the test with Gαi3⋅GDP [2] and in the test with Gαi3⋅GDP [1] was 330 nM each time.

B1: AGS3-GL1234 (470–631) (domain or fragment)
chain: EECFFDLLSKFQSSRMDDQRCPLEEGQAGAAEATAAPSVEDRAAQSSVTASPQTEEFFDLIASSQSRRLDDQRASVGSLPGLRITLNNVGHLRGDGDAQEPGDEFFNMLIKYQSSRIDDQRCPPPDVLPRGPTMPDEDFFSLIQRVQAKRMDEQRVDLAGSP
In turn, B1 gave a Kd with Gαi3⋅GDP [1] of 280 nM.
For NSFYMGTCQDEPEQLDDWNRIAELQQR (domain or fragment) [NuMA (1886–1912)], the Kd is 200 nM in the test with FL-LGN-4E, 280 nM in the test with FL-AGS3-4E, 630 nM with LGN-TPR (1–409) and 240 nM with AGS3-L (−23–405).
For the molecule EECFFDLLSKFQSSRMDDQRCPL (domain or fragment) [AGS3 GL1 motif], the Kd with Gαi3⋅GDP [2] and with Gαi3⋅GDP [1] was 300 nM each time.
Regarding TEEFFDLIASSQSRRLDDQRASV (domain or fragment) [AGS3 GL2 motif], the values for the Kd in the test with Gαi3⋅GDP [2] and with Gαi3⋅GDP [1] were 36.5 nM and 40 nM, respectively.
For DEDFFSLIQRVQAKRMDEQRVDL (domain or fragment) [AGS3 GL4 motif] the same measures were 320 nM and 330 nM.
In turn, DEDFFSLILRSQAKRMDEQRVLL (domain or fragment) [LGN GL4 motif] gave a Kd with Gαi3⋅GDP [1] of 200 nM.

B2: LGN-GL1234 (483–650) (domain or fragment)
chain: DEGFFDLLRRFQSNRMDDQRCHLQGNCRTTSTAAASATPKLMKAPSVSVVSPNTDEFLDLLASSQSRRLDDQRASFSNLPGLRLTKGNSPSVLERLMTNDKKEPDEDFFDILVKCQGSRLDDQRCAPPSAATKGPTVPDEDFFSLILRSQAKRMDEQRVLLQRDPNRD
For the molecule B2, the Kd with Gαi3⋅GDP [1] was 260 nM.

What is called Kd is the constant that tells how readily two partners part at equilibrium.

(Values after PMC12151148 (2024).)
